Data as given in patent US20110262529A1.

What follows are binders tested against HLA-A*0201 (human), P04439 (assay: not given).

First: LLFITGNTL (modifications not checked) [pp1a-3745]
Second: KLSAGVEFL (modifications not checked) [pp1a-634]
The BL50 (half-maximal binding level) of the first is 2.6-fold higher: 154 µM for the first, 59.8 µM for the second.

KLNIKLLGI (modifications not checked) [pp1a-3816] and VLAWLYAAV (modifications not checked) [pp1a-3444] are within 1.5-fold of each other in BL50 (half-maximal binding level): 68.1 µM for the first, 53 µM for the second.

VLGSLAATV (modifications not checked) [pp1a-4219] and QLSLPVLQV (modifications not checked) [pp1a-15] are within 1.5-fold of each other in BL50 (half-maximal binding level): 53.3 µM for the first, 75.7 µM for the second.

First: VLLSVLQQL (modifications not checked) [pp1a-3848]
Second: YLSSVLLAL (modifications not checked) [pp1a-1652]
The BL50 (half-maximal binding level) of the first is 15-fold higher: 102 µM for the first, 6.7 µM for the second.

Compared with FLNRFTTTL (modifications not checked) [pp1a-3459], TLNEDLLEI (modifications not checked) [pp1a-445] is 2.1-fold lower in BL50 (half-maximal binding level): 39.6 µM for the first, 19.2 µM for the second.

Going from ALSGVFCGV (modifications not checked) [pp1a-2990] to CLDAGINYV (modifications not checked) [pp1a-2187], the BL50 (half-maximal binding level) falls from 6.2 µM to 3 µM (2.1-fold).

Compared with FLITGVFDI (modifications not checked) [pp1a-651], MLLTFLTSL (modifications not checked) [pp1a-3560] is 5.6-fold higher in BL50 (half-maximal binding level): 8.4 µM for the first, 47.1 µM for the second.

First: MLSRALKKV (modifications not checked) [pp1a-1288]
Second: LLCVLAALV (modifications not checked) [pp1a-2755]
The BL50 (half-maximal binding level) of the first is 2.9-fold lower: 65.1 µM for the first, 187 µM for the second.

Compared with TLGVLVPHV (modifications not checked) [pp1a-103], AMWLLLLSI (modifications not checked) [pp1a-2207] is 100-fold higher in BL50 (half-maximal binding level): 3.1 µM for the first, 323 µM for the second.

Compared with FLLPSLATV (modifications not checked) [pp1a-3616], SLQVCVQTV (modifications not checked) [pp1a-1139] is 6.5-fold lower in BL50 (half-maximal binding level): 31.8 µM for the first, 4.9 µM for the second.

Each binder was assayed against HLA-A*0201 (human), P04439 (assay: T2 cell HLA-A*0201 stabilisation, affinity category by BL50).

Compared with LLFITGNTL (modifications not checked) [pp1a-3745], KLSAGVEFL (modifications not checked) [pp1a-634] is lower in BL50: 100 to 200 µM for the first, less than 100 µM for the second.

KLNIKLLGI (modifications not checked) [pp1a-3816] and VLGSLAATV (modifications not checked) [pp1a-4219] cannot be ordered by BL50: less than 100 µM for the first, less than 100 µM for the second.

First: QLSLPVLQV (modifications not checked) [pp1a-15]
Second: VLLSVLQQL (modifications not checked) [pp1a-3848]
The BL50 of the first is lower: less than 100 µM for the first, 100 to 200 µM for the second.

YLSSVLLAL (modifications not checked) [pp1a-1652] and ALSGVFCGV (modifications not checked) [pp1a-2990] cannot be ordered by BL50: less than 100 µM for the first, less than 100 µM for the second.

CLDAGINYV (modifications not checked) [pp1a-2187] and MLLTFLTSL (modifications not checked) [pp1a-3560] cannot be ordered by BL50: less than 100 µM for the first, less than 100 µM for the second.

First: MLSRALKKV (modifications not checked) [pp1a-1288]
Second: LLCVLAALV (modifications not checked) [pp1a-2755]
The BL50 of the first is lower: less than 100 µM for the first, 100 to 200 µM for the second.

TLGVLVPHV (modifications not checked) [pp1a-103] and SLQVCVQTV (modifications not checked) [pp1a-1139] cannot be ordered by BL50: less than 100 µM for the first, less than 100 µM for the second.
